Experiments:
[1] = target: full-length human TLR4 encoded by pBIND-TLR4 (human) (UniProt O00206); assay: two-hybrid
[2] = target: full-length human TLR4 encoded by pBIND-TLR4 (human, UniProt O00206 24-839); assay: two-hybrid
full-length human TLR4 encoded by pBIND-TLR4, sequence (O00206 24-839): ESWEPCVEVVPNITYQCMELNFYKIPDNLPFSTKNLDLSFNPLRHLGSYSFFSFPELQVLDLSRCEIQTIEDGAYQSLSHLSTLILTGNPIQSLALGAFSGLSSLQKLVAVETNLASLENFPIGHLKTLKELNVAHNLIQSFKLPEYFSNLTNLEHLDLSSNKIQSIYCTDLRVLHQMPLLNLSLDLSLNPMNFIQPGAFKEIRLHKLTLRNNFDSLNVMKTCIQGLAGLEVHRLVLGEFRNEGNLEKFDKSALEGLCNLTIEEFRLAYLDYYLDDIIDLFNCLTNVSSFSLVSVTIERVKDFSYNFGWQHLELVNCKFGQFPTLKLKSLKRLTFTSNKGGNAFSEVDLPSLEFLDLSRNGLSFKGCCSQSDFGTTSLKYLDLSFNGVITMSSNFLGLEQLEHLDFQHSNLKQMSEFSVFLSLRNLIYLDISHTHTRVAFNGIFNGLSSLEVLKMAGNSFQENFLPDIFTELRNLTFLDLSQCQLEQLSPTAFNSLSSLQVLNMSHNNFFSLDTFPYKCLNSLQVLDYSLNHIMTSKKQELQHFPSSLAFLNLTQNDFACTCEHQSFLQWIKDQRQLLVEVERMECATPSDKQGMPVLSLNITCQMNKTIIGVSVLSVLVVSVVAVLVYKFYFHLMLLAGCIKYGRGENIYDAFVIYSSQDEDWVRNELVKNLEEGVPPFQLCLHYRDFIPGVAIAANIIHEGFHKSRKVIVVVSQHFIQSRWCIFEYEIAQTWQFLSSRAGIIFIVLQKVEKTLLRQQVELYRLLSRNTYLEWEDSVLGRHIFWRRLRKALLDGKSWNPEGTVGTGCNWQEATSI

full-length human TLR4 encoded by pBIND-TLR4 (human), sequence (O00206 24-839): as above

percent binding to TLR4 relative to SPA4 peptide (RLU) [1] [%] | percent binding to TLR4 relative to SPA4 peptide (RLU) [2] [%] | Molecule
74 |  | SPA4 peptide alanine mutant NYTXXXRG-12–19→AAAXXXAA encoded by pACT (mammalian two-hybrid fusion)
 | 81 | GAFRYSDGTPVNYTNWYRGE [SPA4 peptide alanine mutant D-2→A encoded by pACT (mammalian two-hybrid fusion)]

— PMC8673433 (ImmunoHorizons, 2021)
